Test results published in patent US20230416371A1 (Chugai, published 2023).
Numbering of substitutions follows the chain as printed. Numbers in names are those of the source. Values belong to the binder of their own block, whether it stands above or below them.

Legend:
[1] = target: T1, human FcγRIIa H (allotype H131) extracellular domain (human, UniProt P12318 34-217); assay: SPR Biacore 8K+; KD for FcγRIIb divided by KD for this FcγR
T1 construct: extracellular domain; also called hFcγRIIaH
T1 sequence (looked up): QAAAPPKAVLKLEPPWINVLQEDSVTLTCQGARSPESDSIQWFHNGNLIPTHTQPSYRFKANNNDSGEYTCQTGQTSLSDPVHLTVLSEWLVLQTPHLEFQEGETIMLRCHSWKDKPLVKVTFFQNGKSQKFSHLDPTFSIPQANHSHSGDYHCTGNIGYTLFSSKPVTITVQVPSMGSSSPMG
Protocol: (§1) The extracellular domains of FcγRs were produced by the method described in WO2014104165. The interaction between the produced antibodies and human FcγRs was analyzed using Biacore 8K+by the method below. For the running buffer, 50 mM Na-Phosphate, 150 mM NaCl, and 0.05% Tween20 (pH 7.4) was used, and measurement was performed at 25° C. The sensor chip used was a Series S SA chip (GE Healthcare) onto which CaptureSelect Human Fab-kappa Kinetics Biotin Conjugate (Thermo Fisher Scientific) was immobilized. An antibody of interest was captured onto this chip, and each FcγR diluted with the running buffer was allowed to interact with it. The chip was regenerated using 10 mM Glycine-HCl (pH 1.5), and repeatedly used to capture antibodies and perform measurement. The dissociation constants KD (mol/L) of each antibody for FcγRs were calculated using Biacore Insight Evaluation Software, with a steady state affinity model for the dissociation constant for FcγRIIb and a 1:1 Langmuir binding model for the dissociation constants for the other FcγRs (Table 2).

[2] = target: T2, human FcγRIIIa V (allotype V158) extracellular domain (human, UniProt P08637 17-208); assay: SPR Biacore 8K+; KD of G1d divided by KD of this antibody
T2 construct: extracellular domain; also called hFcγRIIIaV
T2 sequence (P08637 17-208 F176V): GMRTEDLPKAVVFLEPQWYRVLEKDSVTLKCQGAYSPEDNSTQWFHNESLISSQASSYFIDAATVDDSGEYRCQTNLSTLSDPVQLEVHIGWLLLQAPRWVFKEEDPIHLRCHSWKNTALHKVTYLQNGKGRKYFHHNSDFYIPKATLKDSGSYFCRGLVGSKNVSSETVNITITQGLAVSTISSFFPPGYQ
Protocol: as §1

[3] = target: T3, human FcγRIIIa F (allotype F158) extracellular domain (human, UniProt P08637 17-208); assay: SPR Biacore 8K+, 25 C, antibody captured, FcγR as analyte, 1:1 Langmuir model
T3 construct: extracellular domain; also called hFcγRIIIaF
T3 sequence (P08637 17-208): as the sequence (P08637 17-208 F176V) above, with V160F counted along it
Protocol: as §1

[4] = target: T3, human FcγRIIIa F (allotype F158) …; assay: SPR Biacore 8K+; KD of G1d divided by KD of this antibody
Protocol: as §1

[5] = target: T3, human FcγRIIIa F (allotype F158) …; assay: SPR Biacore 8K+; KD for FcγRIIb divided by KD for this FcγR
Protocol: as §1

[6] = target: T4, human FcγRIIb extracellular domain (human, UniProt P31994 43-217); assay: SPR Biacore 8K+, 25 C, antibody captured, FcγR as analyte, steady state affinity model
T4 construct: extracellular domain; also called hFcγRIIb
T4 sequence (looked up): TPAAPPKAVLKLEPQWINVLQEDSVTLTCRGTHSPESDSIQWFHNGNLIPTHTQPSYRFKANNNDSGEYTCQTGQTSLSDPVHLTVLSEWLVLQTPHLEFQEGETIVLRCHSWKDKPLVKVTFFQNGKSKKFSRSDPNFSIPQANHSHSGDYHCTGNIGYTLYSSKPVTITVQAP
Protocol: as §1

[7] = target: T1, human FcγRIIa H (allotype H131) …; assay: SPR Biacore 8K+, 25 C, antibody captured, FcγR as analyte, 1:1 Langmuir model
Protocol: as §1

[8] = target: hFcγRIIIaV on hFcγRIIIaV-expressing Jurkat cells (human, UniProt P08637 17-254); assay: cell-based or functional assay
Sequence of hFcγRIIIaV on hFcγRIIIaV-expressing Jurkat cells (P08637 17-254, form in doubt): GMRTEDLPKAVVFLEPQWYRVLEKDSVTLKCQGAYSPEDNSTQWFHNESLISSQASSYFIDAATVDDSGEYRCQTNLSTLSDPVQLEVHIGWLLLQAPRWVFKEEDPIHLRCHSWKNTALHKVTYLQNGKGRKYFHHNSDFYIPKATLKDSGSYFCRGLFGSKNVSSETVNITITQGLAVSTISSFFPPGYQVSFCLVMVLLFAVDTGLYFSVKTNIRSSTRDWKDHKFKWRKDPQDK

[9] = target: T1, human FcγRIIa H (allotype H131) …; assay: SPR Biacore 8K+; KD of G1d divided by KD of this antibody
Protocol: as §1

[10] = target: T4, human FcγRIIb extracellular domain; assay: as above
Protocol: as §1

[11] = target: T2, human FcγRIIIa V (allotype V158) …; assay: SPR Biacore 8K+, 25 C, antibody captured, FcγR as analyte, 1:1 Langmuir model
Protocol: as §1

B1: EGL-G1d (H240-G1d/L73-k0) (antibody, human IgG1, kappa)
heavy: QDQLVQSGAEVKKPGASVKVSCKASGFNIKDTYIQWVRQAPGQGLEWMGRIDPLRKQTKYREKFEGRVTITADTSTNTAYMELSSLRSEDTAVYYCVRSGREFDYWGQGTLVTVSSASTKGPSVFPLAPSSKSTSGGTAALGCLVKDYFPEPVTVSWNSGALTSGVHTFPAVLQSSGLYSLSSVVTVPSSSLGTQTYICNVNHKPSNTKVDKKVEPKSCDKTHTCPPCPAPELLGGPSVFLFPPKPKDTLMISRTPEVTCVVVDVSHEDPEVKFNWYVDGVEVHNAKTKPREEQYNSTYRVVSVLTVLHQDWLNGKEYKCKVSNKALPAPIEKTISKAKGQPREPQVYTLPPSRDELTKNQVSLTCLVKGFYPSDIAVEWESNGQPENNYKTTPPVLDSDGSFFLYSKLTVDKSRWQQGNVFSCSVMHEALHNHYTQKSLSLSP
light: DIQMTQSPSSLSASVGDRVTITCRASQDIHKYIAWYQQKPGQAPRLLIQYTSTLQPGVPSRFSGSGSGTDYTFTISSLQPEDIATYYCLQYEQLRTFGGGTKVEIKRTVAAPSVFIFPPSDEQLKSGTASVVCLLNNFYPREAKVQWKVDNALQSGNSQESVTEQDSKDSTYSLSSTLTLSKADYEKHKVYACEVTHQGLSSPVTKSFNRGEC
notes: Anti-human Epiregulin antibody with human IgG1 constant region G1d (C-terminal Lys and Gly deleted); parent of all Fc variants; also called H240-Gld/L73-k0; anti-hEREG control antibody
A/I ratio (KD for FcγRIIb divided by KD for each FcγR) [1]: 6.9

B2: EGL-SDALIE (H240-Kn032/L73-k0//H240-H1032/L73-k0) (antibody, human IgG1, kappa)
heavy 1: QDQLVQSGAEVKKPGASVKVSCKASGFNIKDTYIQWVRQAPGQGLEWMGRIDPLRKQTKYREKFEGRVTITADTSTNTAYMELSSLRSEDTAVYYCVRSGREFDYWGQGTLVTVSSASTKGPSVFPLAPSSKSTSGGTAALGCLVKDYFPEPVTVSWNSGALTSGVHTFPAVLQSSGLYSLSSVVTVPSSSLGTQTYICNVNHKPSNTKVDKKVEPKSCDKTHTCPPCPAPELLGGPDVFLFPPKPKDTLMISRTPEVTCVVVDVSHEDPEVKFNWYVDGVEVHNAKTKPREEQYNSTYRVVSVLTVLHQDWLNGKEYKCKVSNKALPLPEEKTISKAKGQPREPQVCTLPPSRDELTKNQVSLWCLVKGFYPSDIAVEWESNGQPENNYKTTPPVLDSDGSFFLYSKLTVDKSRWQQGNVFSCSVMHEALHNHYTQKSLSLSP
heavy 2: B2 heavy 1 with C348Y, D355C, W365S, L367A, Y406V
light: B1 light
notes: Anti-human Epiregulin IgG1 with S239D/A330L/I332E in both CH2 domains and knobs-into-holes in CH3
Relative value to KD between G1d and hFcγRs [2]: 36.6 times
Kd [3]: 26.5 nM

B8: EGL-ART5 (H240-Kn462/L73-k0//H240-HI441/L73-k0) (antibody, human IgG1, kappa)
heavy 1: QDQLVQSGAEVKKPGASVKVSCKASGFNIKDTYIQWVRQAPGQGLEWMGRIDPLRKQTKYREKFEGRVTITADTSTNTAYMELSSLRSEDTAVYYCVRSGREFDYWGQGTLVTVSSASTKGPSVFPLAPSSKSTSGGTAALGCLVKDYFPEPVTVSWNSGALTSGVHTFPAVLQSSGLYSLSSVVTVPSSSLGTQTYICNVNHKPSNTKVDKKVEPKSCDKTHTCPPCPAPEFQWGPMVFLFPPKPKDVLMISRTPEVTCVVVDVSDEEPEVKFNWYVDGVEVHNAKTKPREEQYNATYRVVSVLPVLHQDWLNGKEYKCKVSNDALPAPIEKTISKAKGQPREPQVCTLPPSRDELTKNQVSLWCLVKGFYPSDIAVEWESNGQPENNYKTTPPVLDSDGSFFLYSKLTVDKSRWQQGNVFSCSVMHEALHNHYTQKSLSLSP
heavy 2: QDQLVQSGAEVKKPGASVKVSCKASGFNIKDTYIQWVRQAPGQGLEWMGRIDPLRKQTKYREKFEGRVTITADTSTNTAYMELSSLRSEDTAVYYCVRSGREFDYWGQGTLVTVSSASTKGPSVFPLAPSSKSTSGGTAALGCLVKDYFPEPVTVSWNSGALTSGVHTFPAVLQSSGLYSLSSVVTVPSSSLGTQTYICNVNHKPSNTKVDKKVEPKSCDKTHTCPPCPAPELLAGPSVFLFPPKPKDVLMISRTPEVTCVVVDVSHEEPEVKFNWYVDGVEVHNAKTKPREEQYNATYRVVSVLPVLHQDWLNGKEYKCKVSNDALPAPIEETISKAKGQPREPQVYTLPPSRCELTKNQVSLSCAVKGFYPSDIAVEWESNGQPENNYKTTPPVLDSDGSFFLVSKLTVDKSRWQQGNVFSCSVMHEALHNHYTQKSLSLSP
light: B1 light
notes: Anti-human Epiregulin IgG1 with heterodimeric (knobs-into-holes) Fc variant
A/I ratio (KD for FcγRIIb divided by KD for each FcγR) [5]: 387

B9: EGL-GASDALIE (H240-GASDALIE/L73-k0) (antibody, human IgG1, kappa)
heavy: B2 heavy 1 with G235A, C348Y, W365T
light: B1 light
notes: Anti-human Epiregulin IgG1 with symmetric G236A/S239D/A330L/I332E
Kd [7]: 152 nM

Results, then the binder that gave them:

Relative value to KD between G1d and hFcγRs [2]: 685 times
B3: EGL-ART8 (H240-Kn461/L73-k0//H240-HI443/L73-k0) (antibody, human IgG1, kappa)
heavy 1: B8 heavy 1 with I331E
heavy 2: B8 heavy 2 with I331E
light: B1 light
notes: as for B8

Relative value to KD between G1d and hFcγRs [4]: 1270 times
B4: EGL-ART10 (H240-Kn494/L73-k0//H240-HI514/L73-k0) (antibody, human IgG1, kappa)
heavy 1: B8 heavy 1 with D325K, I331E
heavy 2: B8 heavy 2 with A235G, I331E
light: B1 light
notes: as for B8

Relative value to KD between G1d and hFcγRs [2]: 323 times
B5: EGL-ART1 (H240-Kn125/L73-k0//H240-H1076/L73-k0) (antibody, human IgG1, kappa)
heavy 1: B8 heavy 1 with F233Y, V249T, P306T, D325K
heavy 2: B8 heavy 2 with A235G, V249T, A297S, P306T, A329M
light: B1 light
notes: Anti-human Epiregulin IgG1 with heterodimeric (knobs-into-holes) Fc variant; also called Kn125/H1076

A/I ratio (KD for FcγRIIb divided by KD for each FcγR) [5]: 58.4
B6: EGL-ART2 (H240-Kn120/L73-k0//H240-H1068/L73-k0) (antibody, human IgG1, kappa)
heavy 1: B8 heavy 1 with F233Y, Q234Y, V249T, E269D, P306T, D325K, A326D
heavy 2: B8 heavy 2 with A235G, V249T, A297S, P306T, A329K
light: B1 light
notes: Anti-human Epiregulin IgG1 with heterodimeric (knobs-into-holes) Fc variant; also called Kn120/H1068

Kd [6]: 12.5 nM
B7: EGL-GASDIE (H240-Kn037/L73-k0//H240-H1036/L73-k0) (antibody, human IgG1, kappa)
heavy 1: B2 heavy 1 with G235A, L329A
heavy 2: B2 heavy 1 with G235A, L329A, C348Y, D355C, W365S, L367A, Y406V
light: B1 light
notes: Anti-human Epiregulin IgG1 with G236A/S239D/I332E in both CH2 domains and knobs-into-holes in CH3

EC50 value of hFcγRIIIaV-mediated reporter gene induction activity [8]: 5.16 ng/mL
Relative value to KD between G1d and hFcγRs [9]: 1.1 times
Relative value to KD between G1d and hFcγRs [10]: 1.8 times
Kd [11]: 18 nM
Kd [6]: 5850 nM
B10: EGL-afucosyl (H240-G1d/L73-k_glycomab) (antibody)
heavy: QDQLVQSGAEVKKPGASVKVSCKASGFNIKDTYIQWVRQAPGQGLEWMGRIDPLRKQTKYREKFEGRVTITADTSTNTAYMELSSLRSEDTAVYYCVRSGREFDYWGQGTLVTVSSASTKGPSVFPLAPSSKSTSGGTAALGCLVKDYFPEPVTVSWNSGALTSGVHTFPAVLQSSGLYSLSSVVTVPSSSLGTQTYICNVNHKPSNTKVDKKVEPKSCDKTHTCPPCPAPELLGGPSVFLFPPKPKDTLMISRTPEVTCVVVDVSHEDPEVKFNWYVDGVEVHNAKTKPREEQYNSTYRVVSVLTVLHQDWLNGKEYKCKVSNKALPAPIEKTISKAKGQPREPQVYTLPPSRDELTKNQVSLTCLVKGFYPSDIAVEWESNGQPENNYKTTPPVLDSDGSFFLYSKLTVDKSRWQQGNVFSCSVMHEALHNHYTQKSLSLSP
VL: DIQMTQSPSSLSASVGDRVTITCRASQDIHKYIAWYQQKPGQAPRLLIQYTSTLQPGVPSRFSGSGSGTDYTFTISSLQPEDIATYYCLQYEQLRTFGGGTKVEIK
modifications: afucosylated (fucose-deficient sugar chain) ; Afucosylated (fucose-deficient) N-glycan at Asn297 (EU) of the heavy chain; the letters cannot carry it.
notes: Same heavy chain as EGL-G1d, produced in cells that give fucose-deficient antibodies; also called afucosylated antibody
